Test results as given in paper PMC7545097, “Mapping the native interaction surfaces of PREP1 with PBX1 by cross-linking mass-spectrometry and mutagenesis” (Scientific Reports, 2020).

Key:
Assay in all cases: time-resolved fluorescence immunoassay (TR-FIA); plate coated with monoclonal anti-PBX1; PBX1 pre-incubated with PREP1 or MEIS1 for 1 h on ice, 10 µg/mL in 1% BSA PBS, 1 h at room temperature on the plate; detected with anti-PREP1 or biotinylated anti-MEIS1/2 and Eu^3+ conjugates; normalised to the wild-type protein taken as 1
Settings in all cases: both partners purified
[1] = target: T1, PBX1Δ43-55 (human, UniProt P40424 1-430, Δ43-55)
T1 construct: PBX1, residues 1-430, with an internal deletion; source: E. coli, purified
T1 sequence (looked up): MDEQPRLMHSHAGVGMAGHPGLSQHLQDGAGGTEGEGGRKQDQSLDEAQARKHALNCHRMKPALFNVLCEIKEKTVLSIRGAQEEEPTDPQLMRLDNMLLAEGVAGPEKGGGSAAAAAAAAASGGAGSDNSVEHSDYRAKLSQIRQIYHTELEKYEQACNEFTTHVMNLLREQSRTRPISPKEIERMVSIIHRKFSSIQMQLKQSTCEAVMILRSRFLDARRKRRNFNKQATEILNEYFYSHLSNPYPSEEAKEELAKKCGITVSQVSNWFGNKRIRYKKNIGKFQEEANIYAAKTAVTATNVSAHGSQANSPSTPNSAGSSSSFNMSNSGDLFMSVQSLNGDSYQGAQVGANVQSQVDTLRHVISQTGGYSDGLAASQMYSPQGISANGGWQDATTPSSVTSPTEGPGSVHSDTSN

[2] = target: T2, PBX1 I211A (human, UniProt P40424 1-430, I211A)
T2 construct: PBX1, residues 1-430; source: E. coli, purified
T2 sequence (looked up): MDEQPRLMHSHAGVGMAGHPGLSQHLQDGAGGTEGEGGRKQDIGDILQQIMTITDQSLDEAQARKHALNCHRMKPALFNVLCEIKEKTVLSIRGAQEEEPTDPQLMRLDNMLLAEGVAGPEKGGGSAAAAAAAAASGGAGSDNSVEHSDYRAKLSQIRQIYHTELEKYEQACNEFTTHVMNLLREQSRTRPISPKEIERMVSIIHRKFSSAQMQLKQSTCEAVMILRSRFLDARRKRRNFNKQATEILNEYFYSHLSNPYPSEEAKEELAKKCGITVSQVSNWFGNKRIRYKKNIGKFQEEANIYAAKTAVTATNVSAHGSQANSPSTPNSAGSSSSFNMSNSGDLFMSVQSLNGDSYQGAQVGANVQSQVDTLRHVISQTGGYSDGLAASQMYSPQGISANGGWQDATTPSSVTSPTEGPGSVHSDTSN

[3] = target: T3, PBX1 Δ77-84 (human, UniProt P40424 1-430, Δ77−84)
T3 construct: PBX1, residues 1-430, with an internal deletion; source: E. coli, purified
T3 sequence (looked up): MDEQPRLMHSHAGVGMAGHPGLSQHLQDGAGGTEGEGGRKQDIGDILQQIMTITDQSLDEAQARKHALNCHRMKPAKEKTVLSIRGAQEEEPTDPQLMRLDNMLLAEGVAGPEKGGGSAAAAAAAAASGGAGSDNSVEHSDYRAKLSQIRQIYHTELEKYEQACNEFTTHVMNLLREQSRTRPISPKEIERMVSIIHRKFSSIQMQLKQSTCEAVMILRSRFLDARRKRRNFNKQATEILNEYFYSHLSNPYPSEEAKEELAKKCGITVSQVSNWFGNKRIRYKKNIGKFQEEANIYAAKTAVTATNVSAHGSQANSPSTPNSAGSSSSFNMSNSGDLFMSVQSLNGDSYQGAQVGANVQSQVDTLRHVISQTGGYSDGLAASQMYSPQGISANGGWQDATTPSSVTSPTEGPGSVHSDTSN

[4] = target: T4, PREP1 L63A (UniProt P55347 1-436, L63A)
T4 construct: PREP1 (PKNOX1), residues 1-436
T4 sequence (looked up): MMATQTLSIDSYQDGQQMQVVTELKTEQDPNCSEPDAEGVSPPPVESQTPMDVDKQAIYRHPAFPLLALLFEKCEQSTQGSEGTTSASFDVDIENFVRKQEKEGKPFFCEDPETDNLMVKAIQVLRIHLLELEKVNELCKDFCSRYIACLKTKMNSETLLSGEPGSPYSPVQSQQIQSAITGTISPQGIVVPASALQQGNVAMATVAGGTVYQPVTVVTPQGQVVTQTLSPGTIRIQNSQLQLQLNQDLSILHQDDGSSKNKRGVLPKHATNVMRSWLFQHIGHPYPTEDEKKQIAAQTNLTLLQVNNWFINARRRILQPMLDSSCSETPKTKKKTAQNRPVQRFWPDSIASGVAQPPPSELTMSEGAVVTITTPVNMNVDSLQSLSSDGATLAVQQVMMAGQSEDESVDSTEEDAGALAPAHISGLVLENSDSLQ

B1: PREP1_(1-436), wild-type recombinant (TR-FIA) (natural protein, UniProt P55347 1-436, looked up)
chain: MMATQTLSIDSYQDGQQMQVVTELKTEQDPNCSEPDAEGVSPPPVESQTPMDVDKQAIYRHPLFPLLALLFEKCEQSTQGSEGTTSASFDVDIENFVRKQEKEGKPFFCEDPETDNLMVKAIQVLRIHLLELEKVNELCKDFCSRYIACLKTKMNSETLLSGEPGSPYSPVQSQQIQSAITGTISPQGIVVPASALQQGNVAMATVAGGTVYQPVTVVTPQGQVVTQTLSPGTIRIQNSQLQLQLNQDLSILHQDDGSSKNKRGVLPKHATNVMRSWLFQHIGHPYPTEDEKKQIAAQTNLTLLQVNNWFINARRRILQPMLDSSCSETPKTKKKTAQNRPVQRFWPDSIASGVAQPPPSELTMSEGAVVTITTPVNMNVDSLQSLSSDGATLAVQQVMMAGQSEDESVDSTEEDAGALAPAHISGLVLENSDSLQ
notes: also called wild-type PREP1; PKNOX1; source: E. coli, purified
B1 was tested, and the “binding relative to wild type” value [1] was 80%, the “binding relative to wild type” value [2] was roughly 65% and the “binding relative to wild type” value [3] was 35%.

B2: PBX1_(1-430), wild-type recombinant (natural protein, human, UniProt P40424 1-430, looked up)
chain: MDEQPRLMHSHAGVGMAGHPGLSQHLQDGAGGTEGEGGRKQDIGDILQQIMTITDQSLDEAQARKHALNCHRMKPALFNVLCEIKEKTVLSIRGAQEEEPTDPQLMRLDNMLLAEGVAGPEKGGGSAAAAAAAAASGGAGSDNSVEHSDYRAKLSQIRQIYHTELEKYEQACNEFTTHVMNLLREQSRTRPISPKEIERMVSIIHRKFSSIQMQLKQSTCEAVMILRSRFLDARRKRRNFNKQATEILNEYFYSHLSNPYPSEEAKEELAKKCGITVSQVSNWFGNKRIRYKKNIGKFQEEANIYAAKTAVTATNVSAHGSQANSPSTPNSAGSSSSFNMSNSGDLFMSVQSLNGDSYQGAQVGANVQSQVDTLRHVISQTGGYSDGLAASQMYSPQGISANGGWQDATTPSSVTSPTEGPGSVHSDTSN
notes: also called wild-type PBX1; purified recombinant human PBX1; source: E. coli, purified
B2: binds [4].
